Patent publication US20240148890A1 (SUTRO BIOPHARMA, published 2024)

Target: folate receptor alpha (FOLR1) (human, UniProt P15328 25-234)
Assay: cell-based or functional assay

Sequence of folate receptor alpha (FOLR1) (P15328 25-234 limits assumed): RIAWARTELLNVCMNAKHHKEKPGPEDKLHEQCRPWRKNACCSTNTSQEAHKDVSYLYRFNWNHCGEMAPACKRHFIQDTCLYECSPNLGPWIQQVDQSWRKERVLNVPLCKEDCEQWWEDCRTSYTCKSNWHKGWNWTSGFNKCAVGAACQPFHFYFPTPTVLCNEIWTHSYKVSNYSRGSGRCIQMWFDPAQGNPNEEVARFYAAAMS

B1: Conjugate P (FOLR1-directed site-specific antibody-drug conjugate; IgG antibody with VH region SEQ ID NO: 362 and VL region SEQ ID NO: 367, conjugate formula … (antibody, V domains shown)
VH: EVQLVESGGGLVQPGGSLRLSCAASGFNIRTQSIHWVRQAPGKGLEWIGDIFPIDGITDYADSVKGRFTISADTSKNTAYLQMNSLRAEDTAVYYCARGSWSWPSGMDYYLDYWGQGTLVTVSS
VL: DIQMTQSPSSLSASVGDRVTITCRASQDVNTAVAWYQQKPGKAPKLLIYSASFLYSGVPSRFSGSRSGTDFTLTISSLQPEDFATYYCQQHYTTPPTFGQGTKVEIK
modifications: para-azidomethylphenylalanine residues substituting for Y180 and F404 (printed as 'of each VH region'; elsewhere given as heavy chain positions), each linked to the hemiasterlin linker-payload of conjugate formula P (n=4)
Q: B1 was tested. Which “in vitro cytotoxicity IC50 against CBF/GLIS-transduced CB HPSCs (which upregulate FOLR1)” value did it give?
A: 4.2 nM

Q: What about the “in vitro cytotoxicity IC50 against MV4;11 AML cell line engineered to express FOLR1 (MV4;11 FOLR1+)” value of the same binder?
A: 0.1 nM
